Target: the molecule itself
Assay: crystal structure; two crystal structures of AtGDH1 (apo, 2.59 Å; complex with NAD+, 2.03 Å; 2OG in one subunit of the latter); one homohexamer in the asymmetric unit, space group P212121; inter-subunit contacts analysed with PISA

B1: Glutamate dehydrogenase 1 from Arabidopsis thaliana (AtGDH1), homohexamer of α subunits (enzyme, A. thaliana, UniProt Q43314 1-411, looked up)
chain: MNALAATNRNFKLAARLLGLDSKLEKSLLIPFREIKVECTIPKDDGTLASFVGFRVQHDNARGPMKGGIRYHPEVDPDEVNALAQLMTWKTAVAKIPYGGAKGGIGCDPSKLSISELERLTRVFTQKIHDLIGIHTDVPAPDMGTGPQTMAWILDEYSKFHGYSPAVVTGKPIDLGGSLGRDAATGRGVMFGTEALLNEHGKTISGQRFVIQGFGNVGSWAAKLISEKGGKIVAVSDITGAIKNKDGIDIPALLKHTKEHRGVKGFDGADPIDPNSILVEDCDILVPAALGGVINRENANEIKAKFIIEAANHPTDPDADEILSKKGVVILPDIYANSGGVTVSYFEWVQNIQGFMWEEEKVNDELKTYMTRSFKDLKEMCKTHSCDLRMGAFTLGVNRVAQATILRGWGA
notes: Glutamate dehydrogenase 1 (AtGDH1, α subunit), Arabidopsis thaliana ecotype Col-0, locus At5g18170.1, UniProt Q43314; Cloned into pMCSG68; the His tag was cut off with TEV protease; also called glutamate dehydrogenase (isoform 1); source: E. coli BL21-Gold (DE3), purified (HisTrap, TEV cleavage, second HisTrap, Superdex 200 SEC)
stoichiometry N: 6

Source: PMC7326016, “Structural Studies of Glutamate Dehydrogenase (Isoform 1) From Arabidopsis thaliana, an Important Enzyme at the Branch-Point Between Carbon and Nitrogen Metabolism” (Frontiers in Plant Science, 2020)
